Patent US20190101529, “TAU PROTEIN-BINDING DNA APTAMERS WITH CAPTURE/DETECTION AND THERAPEUTIC UTILITIES IN TAUOPATHY-RELATED NEURODEGENERATIVE DISORDERS” (UNIVERSITY OF FLORIDA RESEARCH FOUNDATION, INC., published 2019)
Where no end group is shown, it is not given here. [ ]: non-standard residue; d: D form. pT = C[C@@H](OP(=O)(O)O)[C@H](N)C(=O)O

How the values were obtained:
[1] = molecular target: Tau441 (microtubule-associated protein tau, 2N4R) (UniProt P10636-8 P10636-8:1-441); experiment: BLI; PBS + 5 mM Mg2+, 30 C; conditions: tags: His-tag (SignalChem) for BLI, rPeptide Tau441 for aggregation assay
Sequence of Tau441 (microtubule-associated protein tau, 2N4R) (P10636 other isoform, or with tags, fused parts or gaps): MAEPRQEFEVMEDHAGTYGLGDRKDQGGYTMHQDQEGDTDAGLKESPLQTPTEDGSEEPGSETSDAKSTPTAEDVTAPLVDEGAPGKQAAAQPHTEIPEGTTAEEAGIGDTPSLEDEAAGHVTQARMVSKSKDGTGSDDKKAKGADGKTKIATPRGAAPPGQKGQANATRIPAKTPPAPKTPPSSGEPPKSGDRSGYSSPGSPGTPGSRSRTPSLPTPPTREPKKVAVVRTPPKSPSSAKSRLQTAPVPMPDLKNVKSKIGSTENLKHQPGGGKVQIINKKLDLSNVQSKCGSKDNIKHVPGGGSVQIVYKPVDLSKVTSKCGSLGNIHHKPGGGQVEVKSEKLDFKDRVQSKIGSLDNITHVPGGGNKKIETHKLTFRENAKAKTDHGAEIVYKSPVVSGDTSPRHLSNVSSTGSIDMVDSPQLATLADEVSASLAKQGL
Experimental: (§1) The binding affinities and binding kinetics of the selected aptamers were determined on an Octet RED384 instrument (Pall Fortebio). All measurements were performed on 384-well plates that were agitated at 1000 rpm at 30° C. The his-tag peptides were immobilized at a concentration of 5 μg/mL on Ni-NTA sensors for 10 minutes, followed by rinsing the sensors in PBS for 10 min. Then the sensors were brought into fresh association buffer (PBS with 5 mM Mg2+) to establish a baseline for another 10 min. For kinetic analysis, the peptide-immobilized sensors were transferred to the wells containing aptamer dilutions (1 μM, 1.5 μM, 2 μM, 3 μM, 4 μM) for the association step (10 min), and then moved to the wells with fresh buffer for the dissociation step (10 min). A reference sensor was used without the treatment with aptamer solution but others steps remained the same. […] Association rate constants (kon), dissociation rate constants (koff), and equilibrium dissociation constants (Kd) for each aptamer binding to its target peptide were calculated using the FORTEBIO® data analysis software 10.0.

[2] = molecular target: T1, Tau T231 peptide (UniProt P10636); experiment: BLI; PBS + 5 mM Mg2+, 30 C; conditions: protein: synthetic; tags: synthetic peptide (GenScript), N-terminal acetyl, C-terminal (Ahx)2-His6
T1 chain: KVAVVRTPPKSPS
Experimental: as §1

[3] = molecular target: T2, alpha casein (UniProt P02662 P02662:16-214); experiment: EMSA; 200 nM aptamer, 0.05 mg/mL protein, 4 C; conditions: label: 5'-FAM (flow)
T2 sequence: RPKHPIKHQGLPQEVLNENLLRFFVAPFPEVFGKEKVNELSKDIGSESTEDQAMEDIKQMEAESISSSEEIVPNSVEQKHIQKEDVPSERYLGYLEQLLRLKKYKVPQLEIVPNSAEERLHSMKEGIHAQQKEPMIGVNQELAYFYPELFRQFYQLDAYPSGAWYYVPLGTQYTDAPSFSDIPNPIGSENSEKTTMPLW

[4] = molecular target: BSA (UniProt P02769 P02769:25-607); experiment: EMSA; 200 nM aptamer, 0.05 mg/mL protein, 4 C; conditions: label: 5'-FAM (flow)
Sequence of BSA (P02769 25-607, one chain of several): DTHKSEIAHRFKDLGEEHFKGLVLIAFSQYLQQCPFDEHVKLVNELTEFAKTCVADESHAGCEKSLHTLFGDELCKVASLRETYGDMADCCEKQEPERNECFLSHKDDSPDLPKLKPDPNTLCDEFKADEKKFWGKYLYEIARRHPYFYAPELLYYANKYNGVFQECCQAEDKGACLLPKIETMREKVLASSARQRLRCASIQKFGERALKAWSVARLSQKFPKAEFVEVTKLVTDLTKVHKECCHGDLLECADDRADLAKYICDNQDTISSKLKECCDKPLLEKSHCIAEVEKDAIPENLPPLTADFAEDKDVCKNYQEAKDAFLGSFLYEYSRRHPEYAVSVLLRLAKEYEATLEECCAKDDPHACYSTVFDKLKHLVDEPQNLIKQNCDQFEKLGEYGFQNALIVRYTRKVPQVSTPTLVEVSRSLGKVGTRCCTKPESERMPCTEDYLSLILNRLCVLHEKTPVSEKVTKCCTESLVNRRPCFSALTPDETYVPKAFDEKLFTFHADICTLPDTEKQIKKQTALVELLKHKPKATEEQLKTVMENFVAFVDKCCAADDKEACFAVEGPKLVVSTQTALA

[5] = molecular target: T3, beta casein (UniProt P02666 P02666:16-224); experiment: EMSA; 200 nM aptamer, 0.05 mg/mL protein, 4 C; conditions: label: 5'-FAM (flow)
T3 sequence: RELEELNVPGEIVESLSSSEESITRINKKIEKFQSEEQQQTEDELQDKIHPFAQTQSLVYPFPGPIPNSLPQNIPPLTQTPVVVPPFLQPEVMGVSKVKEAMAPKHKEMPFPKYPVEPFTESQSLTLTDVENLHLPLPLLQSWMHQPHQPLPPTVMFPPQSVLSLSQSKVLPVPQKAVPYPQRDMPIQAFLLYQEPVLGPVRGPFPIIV

[6] = molecular target: UCH-L1 (UniProt P09936 P09936:1-223); experiment: EMSA; 200 nM aptamer, 0.05 mg/mL protein, 4 C; conditions: label: 5'-FAM (flow)
Sequence of UCH-L1 (P09936 whole entry, one chain of several): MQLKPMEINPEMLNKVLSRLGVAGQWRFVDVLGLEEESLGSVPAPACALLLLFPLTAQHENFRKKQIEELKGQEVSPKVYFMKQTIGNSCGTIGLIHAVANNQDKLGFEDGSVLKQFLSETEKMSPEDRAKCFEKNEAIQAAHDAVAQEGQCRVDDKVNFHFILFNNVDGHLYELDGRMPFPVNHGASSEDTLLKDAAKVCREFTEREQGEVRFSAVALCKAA

[7] = molecular target: T4, Tau S202 peptide; experiment: flow; binding lost completely; 4 C; conditions: protein: synthetic; tags: synthetic peptide (GenScript), N-terminal acetyl, C-terminal (Ahx)2-His6
T4 chain: GYSSPGSPGTPGSR
Experimental: (§2) BD ACCURI™ C6 flow cytometry (BD Immunocytometry Systems) was used to monitor the enrichment of aptamer candidates during the selection process and to evaluate the binding specificity of the selected aptamer candidates. For each sample, 20 μL of peptide-beads or bare beads (˜1.4×105 beads) was washed against 500 μL of PBS three times. After removing the supernatant, beads were suspended in 80 μL of buffer containing either DNA pool or aptamer candidate to be tested at 250 nM for 30 min, but the DNA concentration used was 100 nM instead of 250 nM when examining the saturation of fluorescent signal with the selection pools. Incubations were carried out at 4° C. unless stated otherwise. Afterwards, beads were washed against 500 μL of PBS with additional 5 mM Mg2+ twice and then were suspended in 80 μL of buffer for flow cytometric analysis.

[8] = molecular target: T5, Tau T231P phosphopeptide (UniProt P10636); experiment: flow; binding lost completely; 4 C; conditions: protein: synthetic
T5 chain: KVAVVR[pT]PPKSPS
Experimental: as §2

[9] = molecular target: T1, Tau T231 peptide; experiment: flow; binding lost completely; 4 C; conditions: protein: synthetic; tags: synthetic peptide (GenScript), N-terminal acetyl, C-terminal (Ahx)2-His6
Experimental: as §2

[10] = molecular target: T1, Tau T231 peptide; experiment: flow; no significant background binding; PBS + 5 mM MgCl2, 4 C; conditions: protein: synthetic; tags: synthetic (GenScript), N-terminal acetyl, C-terminal Ahx-Ahx-His6; label: fluorophore
Experimental: as §2, with “For” for “BD ACCURI™ C6 flow cytometry (BD Immunocytometry Systems) was used to monitor the enrichment of aptamer candidates during the selection process and to evaluate the binding specificity of the selected aptamer candidates. For”
The supernatant collected after the fourth negative incubation then was carried to the 8th round of positive incubation, in which the concentration of the peptide solutions used to modify Ni-NTA beads was doubled to 800 μg/mL. Moving forward, the following selection rounds were conducted with sandwiched negative incubations to eliminate the possibility of enriching any oligonucleotides recognizing the surface of the beads and with positive beads prepared with more concentrated peptide solutions (800 μg/mL) to raise the recovery rate of the desired candidates. The SELEX progress was then evaluated again with amplicons obtained in Round #10 and Round #11. […] Four oligonucleotides were used as reference sequences.

[11] = molecular target: T1, Tau T231 peptide; experiment: flow; binding lost; 4 C; conditions: protein: synthetic; tags: synthetic peptide (GenScript), N-terminal acetyl, C-terminal (Ahx)2-His6
Experimental: as §2

## CTGAATAAGGACTGCTTAGGATTGCGATGATTCAG (ssDNA) [IT2a]
[1]; hairpin
  Kd: 19.5 nM

## GCTTGGTCCTCCCGGGGTTCTGGAAAAGC (ssDNA) [IT1c]
[2]
  Kd: 46 nM
[1]
  Kd: 13 nM

B1: IT6 (ssDNA)
DNA: CAGCACCGTCAACTGAATGTTGTCGTCAGAGGTTATAACCTGAACTCGGTGATGCGATGGAGATGT
[1]; label: 5'-FAM (flow), branched hairpin (predicted)
  Kd: 26.8 nM

B2: IT2 (ssDNA)
DNA: CAGCACCGTCAACTGAATAAGGACTGCTTAGGATTGCGATGATTCAGGGTGATGCGATGGAGATGT
[1]; label: 5'-FAM (flow)
  Kd: 5.5 nM

B3: IT5 (ssDNA)
DNA: CAGCACCGTCAACTGAATGGCGGGGGGTCAGGTCGGGGTAAGGTGAGCGTGATGCGATGGAGATGT
[3]
  binding result: no binding
[4]
  binding result: no binding
[5]
  binding result: no binding
[6]
  binding result: no binding
[1]; label: 5'-FAM (flow)
  Kd: 7.6 nM

B4: IT9 (ssDNA)
DNA: CAGCACCGTCAACTGAATTGCGGGGGGTCAGGTCGGGGTAAGGTGAGCGTGATGCGATGGAGATGT
[3]
  binding result: no binding
[4]
  binding result: no binding
[5]
  binding result: no binding
[6]
  binding result: no binding
[1]; label: 5'-FAM (flow)
  Kd: 22.8 nM

B5: IT3 (ssDNA)
DNA: CAGCACCGTCAACTGAATGGGGAGAGTGGTGGGGCGGGGGCCGGATCCGTGATGCGATGGAGATGT
[3]
  binding result: no binding
[4]
  binding result: no binding
[5]
  binding result: no binding
[6]
  binding result: no binding
[1]; label: 5'-FAM (flow)
  Kd: 17 nM

B6: IT1 (ssDNA)
DNA: CAGCACCGTCAACTGAATTGCTTGGTCCTCCCGGGGTTCTGGAAAAGCGTGATGCGATGGAGATGT
[1]; label: 5'-FAM (flow)
  Kd: 9 nM

## AAGGACTGCTTAGGATTGC (ssDNA) [IT2b]
[7]
  binding result: no binding
[8]
  binding result: no binding
[9]
  binding result: no binding

## CTTCTGCCCGCCTCCTTCC (ssDNA) [Ref3]
[10]
  binding result: no binding

B7: IT4 (ssDNA)
DNA: CAGCACCGTCAACTGAATGGGTTGGCCGGGCAGCGGGGGGTAGGCTTGGTGATGCGATGGAGATGT
[3]
  binding result: no binding
[4]
  binding result: no binding
[5]
  binding result: no binding
[6]
  binding result: no binding
[1]; label: 5'-FAM (flow)
  Kd: 68 nM

## CACCGTCAACTGAATGTTGTCGTCAGAGGTTATAACCTGAACTCGGTG (ssDNA) [IT6a]
[1]
  Kd: 28.2 nM

## GCGGAGCGTGGCAGG (ssDNA) [Ref1]
[10]
  binding result: no binding

## TTGGTCCTCCCGGGGTTCTGGAAAA (ssDNA) [IT1d]
[11]
  binding result: no binding

## AACGAGAAGCGCGATCACAT (ssDNA) [Ref2]
[10]
  binding result: no binding
